Results as given in patent US20230111363A1.
Substitutions are numbered along the chain they refer to. Blank lines part the entries; values can stand above or below the binder they belong to.

How the values were obtained:
[1] = target: human serum polyclonal antibodies; experiment: cross-interaction chromatography (CIC), IgG column against blank column
[2] = target: human serum polyclonal antibodies; experiment: cross-interaction chromatography (CIC), column with human serum polyclonal IgG

IgG K' (column retention time ratio) [1]: 0.05
IgG column RT [2]: 5.07 min
IgG column peak width [2]: 1.5 min
B1: anti-human MCT1 antibody Ab1 (antibody, human IgG1, kappa, V domains shown)
VH: QVQLVQSGAEVKKPGASVKVSCTVSGFSLTNYHLQWVRQAPGQGLEWMGFIRSSGNTEYNSEFKSRVTMTRDTSTSTVYMELSSLRSEDTAVYYCARNSWYHGTYYSPGYYVMDAWGQGTLVTVSS
VL: EIVLTQSPGTLSLSPGERATLSCKGSQNINNYLAWYQQKPGQAPRLLIYNRHNLQTGIPDRFSGSGSGTDFTLTISRLEPEDFAVYYCYQYSDGYTFGGGTKVEIKR

IgG K' (column retention time ratio) [1]: 0.08
IgG column RT [2]: 5.35 min
IgG column peak width [2]: 1.64 min
B2: anti-human MCT1 antibody Ab18 (antibody, human IgG1, kappa, V domains shown)
VH: B1 VH with F27R, Q35G, S99R
VL: B1 VL with N30E

IgG K' (column retention time ratio) [1]: 0.07
IgG column RT [2]: 5.33 min
IgG column peak width [2]: 1.63 min
B3: anti-human MCT1 antibody Ab13 (antibody, human IgG1, kappa, V domains shown)
VH: B1 VH with F27R, S99R, Y101R
VL: B1 VL with N30E

IgG K' (column retention time ratio) [1]: 0.08
IgG column RT [2]: 5.41 min
IgG column peak width [2]: 1.94 min
B4: anti-human MCT1 antibody Ab19 (antibody, human IgG1, kappa, V domains shown)
VH: B1 VH with F27R, S53R, S99R
VL: B1 VL with N30E

IgG K' (column retention time ratio) [1]: 0.08
IgG column RT [2]: 5.38 min
IgG column peak width [2]: 1.79 min
B5: anti-human MCT1 antibody Ab7 (antibody, human IgG1, kappa, V domains shown)
VH: B1 VH with F27R, L29R, S99R
VL: B1 VL with N30E

IgG K' (column retention time ratio) [1]: 0.09
IgG column RT [2]: 5.27 min
IgG column peak width [2]: 1.55 min
B6: anti-human MCT1 antibody Ab15 (antibody, human IgG1, kappa, V domains shown)
VH: B1 VH with F27R, S99L
VL: B1 VL with N30E

IgG K' (column retention time ratio) [1]: 0.07
IgG column RT [2]: 5.29 min
IgG column peak width [2]: 1.46 min
B7: anti-human MCT1 antibody Ab12 (antibody, human IgG1, kappa, V domains shown)
VH: B1 VH with F27R, Q35V, S99R
VL: B1 VL with N30E

IgG K' (column retention time ratio) [1]: 0.06
IgG column RT [2]: 5.33 min
IgG column peak width [2]: 1.57 min
B8: anti-human MCT1 antibody Ab11 (antibody, human IgG1, kappa, V domains shown)
VH: B1 VH with F27R, S99R, Y101H
VL: B1 VL with N30E

IgG K' (column retention time ratio) [1]: 0.05
IgG column RT [2]: 5.19 min
IgG column peak width [2]: 1.36 min
B9: anti-human MCT1 antibody Ab17 (antibody, human IgG1, kappa, V domains shown)
VH: B1 VH with F27R, Y32I, S99R
VL: B1 VL with N30E

IgG K' (column retention time ratio) [1]: 0.08
IgG column RT [2]: 5.4 min
IgG column peak width [2]: 1.89 min
B10: anti-human MCT1 antibody Ab16 (antibody, human IgG1, kappa, V domains shown)
VH: B1 VH with V24R, F27R, S99R
VL: B1 VL with N30E

IgG K' (column retention time ratio) [1]: 0.07
IgG column RT [2]: 5.34 min
IgG column peak width [2]: 1.55 min
B11: anti-human MCT1 antibody Ab8 (antibody, human IgG1, kappa, V domains shown)
VH: B1 VH with F27R, E58I, S99R
VL: B1 VL with N30E

IgG K' (column retention time ratio) [1]: 0.06
IgG column RT [2]: 5.27 min
IgG column peak width [2]: 1.44 min
B12: anti-human MCT1 antibody Ab10 (antibody, human IgG1, kappa, V domains shown)
VH: B1 VH with F27R, N31G, S99R
VL: B1 VL with N30E

IgG K' (column retention time ratio) [1]: 0.07
IgG column RT [2]: 5.28 min
IgG column peak width [2]: 1.46 min
B13: anti-human MCT1 antibody Ab9 (antibody, human IgG1, kappa, V domains shown)
VH: B1 VH with F27R, L34I, S99R
VL: B1 VL with N30E

IgG K' (column retention time ratio) [1]: 0.07
IgG column RT [2]: 5.29 min
IgG column peak width [2]: 1.51 min
B14: anti-human MCT1 antibody Ab14 (antibody, human IgG1, kappa, V domains shown)
VH: B1 VH with F27R, S99R, A115P
VL: B1 VL with N30E
